The values below come from article PMC10245438, “Domino-like effect of C112R mutation on ApoE4 aggregation and its reduction by Alzheimer’s Disease drug candidate” (Molecular Neurodegeneration, 2023).

Positions count from the first letter of the chain named.

Data set [1] concerns the molecule itself. Nature of the data set: crystal structure; His-MBP-ApoE4M ~8 mg/ml, hanging drop vapour diffusion; four crystals in two space groups (P212121, P3121); dimeric unit of two NTDs (chains A and B) from crystal packing contacts.
Data set [2] deals with the molecule itself. In words: dynamic light scattering; ~0.2 mg/ml, room temperature, size distribution after SEC purification.

B1: ApoE4 N-terminal domain (NTD) as seen in the crystals grown from His-MBP-ApoE4M (domain or fragment, human, UniProt P02649 40-183, looked up)
chain: SGQRWELALGRFWDYLRWVQTLSEQVQEELLSSQVTQELRALMDETMKELKAYKSELEEQLTPVAEETRARLSKELQAAQARLGADMEDVRGRLVQYRGEVQAMLGQSTEELRVRLASHLRKLRKRLLRDADDLQKRLAVYQAG
notes: apolipoprotein E, isoform ApoE4 (R112/R158), human; only residues ~22-165 (NTD) were obtained in the structures; the five mutations lie outside that range; also called ApoE4 NTD; source: E. coli BL21(DE3), purified (Ni-NTA, SEC; no cleavage step)
In the case of B1, in data set [1], the binding result was “binds”.

B2: APOE3M-AP (domain or fragment, human, UniProt P02649 42-317, looked up)
chain: QRWELALGRFWDYLRWVQTLSEQVQEELLSSQVTQELRALMDETMKELKAYKSELEEQLTPVAEETRARLSKELQAAQARLGADMEDVCGRLVQYRGEVQAMLGQSTEELRVRLASHLRKLRKRLLRDADDLQKRLAVYQAGAREGAERGLSAIRERLGPLVEQGRVRAATVGSLAGQPLQERAQAWGERLRARMEEMGSRTRDRLDEVKEQVAEVRAKLEEQAQQIRLQAEAAQARLKSRFEPLAEDMQRQWAGQVEKVQAAEGTSAAPVPSDNH
notes: apolipoprotein E, isoform ApoE3, human, residues 1-23 (helices N1 and N2) deleted, with the five monomerizing mutations; Truncated variants were cloned into NdeI/BamHI of pET-21b; also called ApoEM-AP; aggregation-prone ApoEM; source: E. coli BL21(DE3), purified (Ni-NTA, 3C protease cleavage, SEC); not shown: His, N-terminal, cleaved; thioredoxin, N-terminal, cleaved
As for B2, the binding result in data set [2] is given as “binds”.

B3: APOE4M-AP (domain or fragment, human, UniProt P02649 42-317, looked up)
chain: B2 chain with C89R
notes: apolipoprotein E, isoform ApoE4, human, residues 1-23 (helices N1 and N2) deleted, with the five monomerizing mutations; Truncated variants were cloned into NdeI/BamHI of pET-21b; also called ApoEM-AP; aggregation-prone ApoEM; source: E. coli BL21(DE3), purified (Ni-NTA, 3C protease cleavage, SEC); not shown: His, N-terminal, cleaved; thioredoxin, N-terminal, cleaved
Consider B3, for which the binding result in data set [2] was “binds”.
